These results are taken from the DeepSol protein solubility set.

The data set is described as follows: soluble on expression in E. coli; label from the status in PepcDB or PDB records.
Regarding “MGSDKIHHHHHHNGNGDKSLENWIWDAACSIRGAQEAAKYKDFILPLIFTKRLCDVFDDELNRIAEKVGSRAKAFKLVAMDHNLVRFYLPLQPQNPDDPVWSVIRKLSDKIGEKLTDYLREIAKANPLLNGIINRVDFNATTHGQRDLDDDRLSNLIEKISEKRLGLKDVEPDIIGRSYEYLIRKFAEGSGQSAGEFYTPKEVGLIMAKIMQPEPGMTIYDPCCGSAGLLIKCQLVLQESQGATEKFAPLQLYGQEYTPNTWAMANMNMIIHDMEGKIEIGDTFRHPKFMQAGKLAQFERVVANPMWNQKWFTEKDYDGDELGRFPKGAGYPGSSADWGWVQHILASLDKTGKAAIVLDTGAASRGSGNANKNKEKEVRKWFVEQDLIEGVIYLPQNLFYNTSAPGILLFLNRAKPKERQGKLFFINASLVFAKGDPKNYIPDEEIERIANTFLTWREEEKFSLIVYKDKIAHNDYNISPSRYIHITEEEDFRPIAEILEELEVLEKEAAETNK”, the “soluble on expression in E. coli” value is on record as “not soluble”.

Consider “TLKGKTALVTGSTSGIGLGIAQVLARAGANIVLNGFGDPAPALAEIARHGVKAVHHPADLSDVAQIEALFALAEREFGGVDILVNNAGIQHVAPVEQFPLESWDKIIALNLSAVFHGTRLALPGMRARNWGRIINIASVHGLVGSTGKAAYVAAKHGVVGLTKVVGLETATSNVTCNAICPGWVLTPLVQKQIDDRAANGGDPLQAQHDLLAEKQPSLAFVTPEHLGELVLFLCSEAGSQVRGAAWNVDGGWLAQ”, for which the “soluble on expression in E. coli” value is listed as “soluble”.

Turning to “MKVIMTTKVDKASMNIMNKLIENFGFKETEYVFDGNPVYKRGDVLILTTNDEMIYYDYLDREIENQLGFKPEIIAFASRHSSKQKLPALTTHVTGNWGKAMYGGKDESFAVAIPSAMKLSLLKMSELNDLGWTVCYEATHHGPTELEVPSFFIEIGSSEEEWINDRAGEIIAETIIYVLDNYEKGRSKFKVALGIGGGHYAPKQTKRALEGDLAFGHILPKYAQPVSRDVMIKALNRFGEKVEAIYVDWKGSRGETRQLAKSLAQELGLEFIKD”, the “soluble on expression in E. coli” value is on record as “soluble”.

As for “MGSDKIHHHHHHMNTHKHARLTFLRRLEMVQQLIAHQVCVPEAARAYGVTAPTVRKWLGRFLAQGQAGLADASSRPTVSPRAIAPAKALAIVELRRKRLTQARIAQALGVSASTVSRVLARAGLSHLADLEPAEPVVRYEHQAPGDLLHIDIKKLGRIQRPGHRVTGNRRDTVEGAGWDFVFVAIDDHARVAFTDIHPDERFPSAVQFLKDAVAYYQRLGVTIQRLLTDNGSAFRSRAFAALCHELGIKHRFTRPYRPQTNGKAERFIQSALREWAYAHTYQNSQHRADAMKSWLHHYNWHRPHQGIGRAVPISRLNLDEYNLLTVHS”, the “soluble on expression in E. coli” value is “not soluble”.

As for “MRGSHHHHHHGSIEGRMEKINYLLPEESAEMTLNQVKSLRQIEGRLRKLFSLKNYQEVMPPSFEYTQLYTALESNGKTFNQEKMFQFIKHEGQSITLRYDFTLPLVRLYSQIKDSTSARYSYFGKIFRKEKRHKGRSTENYQIGIELFGESADKSELEILSLALQVIEQLGLNKTVFEIGSAKFFQRLCQLADGSTELLTELLLKKDLSGLNAFIEKNNFSKELRGLLKEIFITNELSRLENLVTNTKDDVLISSFDQLKEFSEKLSMIKPIIIDLGMVPKMDYYTDLMFKAYSSAANQPILSGGRYDQLLSNFQEEAFAIGFCCHMDTILKALERQELEEDND”, the “soluble on expression in E. coli” value is on record as “soluble”.

In the case of “MSLATAAPFVSDQAEAKGFVEGSTLDLKLRNYYYNRDRKNNPAPGGRSDKDWTQGIWANFSTGYTQGTIGVAAEAFGYGALRLWGPDKYSGSGNLVTDSNGDNEATQGKFGGAVKFRVSKTELKVGDMQPTSPVFAVGGSRILPQTASGLSLQSSEIAGLDLEAGHFYSGTSQDDTSHNGSIWATYANGFNGLKANSADFLGGKYAITDGLGVAFYAAKLEDIWDQYYGNVNYALPLGNDQSLAFDVNLYRTLDEGSSKADSINNTTYSASAAYSFLAAHTVTVAYQKVDGDTPFDYIGIGDNNRGGDSIFLANSVQYSDFNGPGEKSWQIRYDLNMTPYGVPGLSFMTRYLNGDNIDGTKVDASSLYANMYGADGKHHETNLEAKYVVQAGPAKDLSFRMRQAWHRGNDAQSDGDVNEFRLIVDYPISILKGIITITTDPNSSSVDKLAAALEHHHHHH”, the “soluble on expression in E. coli” value is on record as “soluble”.

Turning to “MSLTANSHAVMTVGDQTVSPQEFRLAYQRQVSDLSRQFGTRLTTEQAKAFGIDRQVFSQLAAGAALDELASKMNLGLSENRLANLIAEDPAFKSVNGQFDRNLFSERLRNSGFREDDYIKERSKVAVRSQIVEAVSDGFAAPQVLVDALKQYRNEQRAVDYVILSNAVIPPVKAPGDDVLTPWFETNKSKYRAPEFRKFTYVKLEPSDIAEPASVTDAQIADYYNSHKDSFRTAGRRTVEQLTFPDKEMAAAAAEQIRLGNTTYDQVVKDQGKTASDVTLGEFTKDTIPDQSIADAAFAIQKDGGVSPVVDGSFGPILLRVTGIKPETEGHHHHHH”, the “soluble on expression in E. coli” value is “soluble”.

As to “MGSDKIHHHHHHMRKLISIILLLLTININSQIVELRPVKVPAEHAEYFETIHTEYSIKTAQDAKDKGKLYGWWVAKRLNTNEDDFNYLFITVHPSVESLIDNEYWWQNSEEVTGYKPEILYKMADLFEFDKQYIYQVEMQIPDAAEAKYIIINFATPDDLNTVLKESKEIVMPHFQKNLIKSGMVGWGVATKITPQGSNYSSFSTWDSYDSLENMMKHLGGGAAIEGLPLNKLTPIEWSMRPIFRVITGTK”, the “soluble on expression in E. coli” value is reported as “not soluble”.

As for “MGSDKIHHHHHHMTTRILICDDSALARKQMAKALPPGLADDILFAGDGKEALTILRDQKAELLFLDLNMPELDGYQVLEHIRSEDLPVLTIVVSGDIQPEARERVRKLGAIDFIKKPTDTGVVSRLLKEYGFYRPSELEDTALNDASLHSREAAAPEISVSLSDYLQEISNVAMGRSSDLLARLLKVFVKQPIPKVAFIANSELHMAISAAQRAENYSAVCQGFTGAGIAGEALLLFEDASFREMAELLHYDVLEGESVNVEVLMDMSSILFGAFINGIGDQLDLKLGLGHPTVLGQHRPVNELLDHHSKREEQLLCIEISYALENRDIRCNMLILLTEDSIPFLEKRLAYLVD”, the “soluble on expression in E. coli” value was “not soluble”.

On to “AGMDVRESISLQNQVSMNLAKHVITTVSQNSNVIFSPASINVVLSIIAAGSAGATKDQILSFLKFSSTDQLNSFSSEIVSAVLADGSANGGPKLSVANGAWIDKSLSFKPSFKQLLEDSYKAASNQADFQSKAVEVIAEVNSWAEKETNGLITEVLPEGSADSMTKLIFANALYFKGTWNEKFDESLTQEGEFHLLDGNKVTAPFMTSKKKQYVSAYDGFKVLGLPYLQGQDKRQFSMYFYLPDANNGLSDLLDKIVSTPGFLDNHIPRRQVKVREFKIPKFKFSFGFDASNVLKGLGLTSPFSGEEGLTEMVESPEMGKNLCVSNIFHKACIEVNEEGTEAAAASAGVIKLRGLLMEEDEIDFVADHPFLLVVTENITGVVLFIGQVVDPLH”, for which the “soluble on expression in E. coli” value is “soluble”.

For the sequence “VSELRLMAVHAHPDDESSKGAATLARYADEGHRVLVVTLTGGERGEILNPAMDLPDVHGRIAEIRRDEMTKAAEILGVEHTWLGFVDSGLPKGDLPPPLPDDCFARVPLEVSTEALVRVVREFRPHVMTTYDENGGYPHPDHIRCHQVSVAAYEAAGDFCRFPDAGEPWTVSKLYYVHGFLRERMQMLQDEFARHGQRGPFEQWLAYWDPDHDFLTSRVTTRVECSKYFSQRDDALRAHATQIDPNAEFFAAPLAWQERLWPTEEFELARSRIPARPPETELFAGIEP”, the “soluble on expression in E. coli” value is listed as “soluble”.

Consider “MSLELTVFSIGDWGEKTECLVNVTTKMGSLESAMNPKFIISVGDNFYQRGVKSVEDAAWTEILEEPFGKLSKHLKVHSCLGDHDWRGSTTAQIDRTNYANNTRWYLPGYWWYEKVTFTSEVSLPSLFEKSGLGEISANNSFHFNSSKTENSTSCEIDCLDEIVDNLNTMVNRNNSWNEDLSYKTSISEYFSEKQVNSTAVFIYIDSWTLTQDPFKKTSISYKYSQLEFIEQTLKAAVFENVDWIILVTHYSIYSSGLHGPHTRLASILMPLIKKYRVDFIISGHDHHSEILVPEDFNSYFQIVGASSKEGHHHHHH”, for which the “soluble on expression in E. coli” value was “soluble”.

Take “MVMNAILKKTHFSTAEYLADLAVQALIDEVNLTPKPALVDRRGGGAHDDLNLELMEKSAYSLFPMFKAMAEAAEIHGEVNQALREDIGQLGRQGEQRMLQVTHGINTHRGAIWSIGLVLTATALTLYKQEPCLITEICKTAAEIALLEDRFIPKQQFSHGQMVRQKFGINGAKQQAQQGFPIILEFGLVQLQCSRALNTTETEARLNALLAMMAELSDTCVVHRAGLDGLNMMQSGAREVLQLGGCSTNEGQQRLEQLEQNLLRIRASAGGAADLLATLLFLDQAEQHNSSAPQGRRNQWKY”: the “soluble on expression in E. coli” value is listed as “not soluble”.

As for “MGSDKIHHHHHHKTSSTQLPTIDAISSVADLTNAVNGVYEQQATEVGSYGAEFTLLADLRSGDFQSISTVNHAGPMYRYQTGKNDEMVYSFYKLFYNSLARLNNVLAAAENLEGADVDILKGELYAMRALYHFDLARVFAKLPSTTDMNDLGIVLSTEVYPTDYIGTRATLQQTYDQILKDIETALPLLSKDKQTGHINYWGALAIRARAYLYLEKNKEALADCKEIIASSPYKLYTRDEYIGAWDKEGTNEAIFEILVTPNYNAQRNSIGYFTHASGYGECAATESFLEELAKHPGDIRTELFAKETDNGYDGTYPQKYKGRDGQIYVNNPKVVRLSEVYLIAAEAALKAGDTSAAAGYMNTLRKNRIENYTDVASITLDDILLERRLELFTEGHTAWDAWRNGKSVNNKFVGEVKPGDYRTIMAIPIGEITVSRGQLIQNPGY”, the “soluble on expression in E. coli” value is “not soluble”.

With “MKKLNFSELNWINTPENFSITENELVIHTSPDTDFWRGTYYGLEYNNAPGIVMRSEERFWTLKSKVAFESNMFFDQCGMLIYIDDNNWMKSGIEYQSNGYQQLFSVVTNNGFSDWAMTNLDRVTQTMYYRLSRRGNDFLLEHSADGKIFNMMRMFHMFQAYTTVQFGFFASSPGDSSFAAHFSEIEWTECLWDAHTSSRFLEHHHHHH”, the “soluble on expression in E. coli” value is on record as “not soluble”.

Consider “MVLWVFGYGSLIWNPGFDFDEKLIGYIKDYKRVFDLACIDHRGTPEHPARTCTLEQSTGAICWGAAYCVRGGPEKEKLAMEYLERRECEYDSKTLVEFYTENDTSTPIVTGVIVFTSTPDKVSNKYYLGPAPLEEMARQIATASGPCGNNREYLFKLEKAMFDIEHEEEYVIELANEVRKQLDLPEEVKALLKPIVSHVSVKSQAHVSTRQRVFAS”, for which the “soluble on expression in E. coli” value was “soluble”.

For the sequence “MITPDLESGVKVWHLVKNHDHGDQKEGDRGSKMVSEIYLTRLLATKGTLQKFVDDLFETLFSTVHRGSALPLAIKYMFDFLDEQADRHSIHDTDVRHTWKSNCLPLRFWVNVIKNPQFVFDIHKGSITDACLSVVAQTFMDSCSTSEHRLGKDSPSNKLLYAKDIPSYKNWVERYYADIAKLPAISDQDMNAYLAEQSRLHATEFNMLSALNEIYSYVSKYSEELIGALEQDEQARRQRLAYKVEHLINAMSIES”, the “soluble on expression in E. coli” value is listed as “not soluble”.

On to “MQNQYFTVQENYKERFYQIPKVFFTSENYKNLTNDMKIAYAILRDRLNLSIKNSWVDEDGNIYFVYSNEKLMEILNCKKEKLTKIKKGLENDGLLIQKRRGLNKPNILYLMKPIVTERDIYKIEKEENDVEPYGEKEVRKSNVQKFENRTSRSSKIERPEVRKSNTNDTDFNDIDFNDTENNDMNDLNDIKYKNEISNHSNHSNQFTHNFDDKEMLLQEFPEQLTNYLLKYDYRDLEIIKAVILKAKKSFNSRHEDMHYMLEDIEDEILTSLKRLKKAIHDRGVKGQKETIKSMQAYLMQTILTELEETHALYMRRKNMKQYNIFNQ”, for which the “soluble on expression in E. coli” value is listed as “soluble”.
